From US12018068B2, “Anti-O1 antibodies and uses thereof” (priority 2016, dated 2024) come the findings set out here.

One experiment addresses LPS (O1). As to the kind of experiment: LPS neutralization assay, RAW264.7-lux NF-κB luciferase reporter. Type of experiment: cell-based, murine. How it is done:
LPS neutralization was assayed by utilizing a murine RAW264.7 macrophage cell line carrying a firefly luciferase reporter gene under the control of an NF-κB-responsive promoter (RAW264.7-lux). Serially diluted antibody stocks were mixed with LPS in a 1:1 ratio and incubated at 4° C. for 1 hr. Antibody/LPS mixture was then diluted 1:10 into assay plates containing pre-seeded RAW264.7-lux cells (5e3 cells/well), which were then placed at 37° C./5% CO2 for 2.5 hours. Following incubations, Steady Glo (Promega) was then added to each well and incubated for another 20 min protected from light. The relative light units (RLUs) were then measured using an Envision Multilabel plate reader (Perkin Elmer). The percentage of inhibition was determined by comparing RLU derived from assays with no antibodies to RLU obtained from anti-K. pneumoniae mAbs and a negative control mAb. Activation of TLR4 receptors by bacterial LPS leads to downstream activation of the NF-κB transcriptional regulator. A decrease in induction of NF-κB-responsive luciferase activity was used to quantify LPS neutralization activity by LPS mAbs.

In experiment [1] the test system is K. pneumoniae strain Kp4211 lux. In words: high throughput serum bactericidal assay (SBA), complement-dependent killing. Type of experiment: cell-based, Klebsiella pneumoniae. Conditions: for complement-dependent killing in SBA: FIG. 1B; for complement-dependent killing (SBA) in primary screening: strain Kp4211 (LPS-O1). How it is done: Peripheral blood mononuclear cells (PBMC) and sera were separated from buffy coats from healthy blood donors (N=567). PMBC were stored in liquid nitrogen whereas the plasma was stored at 4° C. To identify Klebsiella pneumoniae immune donors, all the available sera were tested for binding to Kp43816 and Kp4211 (LPS-O1 serotype), as well as to the unencapsulated mutant strain Kp43816ΔcpsB and the double mutant Kp43816ΔcpsBΔwaaL. […] In addition, all available sera were tested for their bactericidal activity in the presence of complement using a high-throughput serum bactericidal assay (SBA assay). Overnight cultures of luminescent K. pneumoniae strain 4211 (lux) were diluted in Muller Hinton II media to make OD600 to be 0.003. Equal volume of sera, 4211 lux, and baby rabbit serum (Cedarlane) were mixed in 384 well plates and incubated at 37° C. for two hours with shaking (250 rpm). The relative light units (RLUs) were then measured using an Envision Multilabel plate reader (Perkin Elmer). The percentage of killing was determined by comparing RLU derived from assays with no antibodies to RLU obtained from human sera.
The susceptibility of the K. pneumoniae strain Kp4211 lux to serum and antibody dependent killing was measured by high throughput serum bactericidal assay (SBA). Overnight cultures of luminescent K. pneumoniae strain 4211 (lux) were diluted in Muller Hinton II media to make OD600 to be 0.003. Equal volume of antibodies, 4211 lux, and baby rabbit serum (Cedarlane) were mixed in 384 well plates and incubated at 37° C. for two hours with shaking (250 rpm). The relative light units (RLUs) were then measured using an Envision Multilabel plate reader (Perkin Elmer). The percentage of killing was determined by comparing RLU derived from assays with no antibodies to RLU obtained from anti-K. pneumoniae mAbs and a negative control mAb.

The test system of experiment [2] is K. pneumoniae capsule mutant strain 43816ΔcpsB Lux. In words: bioluminescent opsonophagocytic killing (OPK) assay with HL-60 cells. Conditions: for induction of OPK killing: FIG. 1C. Type of experiment: cell-based, Klebsiella pneumoniae. How it is done: (§1) PBMC donors were ranked based on their binding titers as well as their SBA and OPK activity. OPK assays were performed as described with modifications (Wang, Q. et al. Target-Agnostic Identification of Functional Monoclonal Antibodies Against Klebsiella pneumoniae Multimeric MrkA Fimbrial Subunit J Infect Dis. 2016 Jun. 1; 213(11):1800-8). Briefly, log phase cultures of luminescent K. pneumoniae capsule mutant strain 43816ΔcpsB (43816ΔcpsB Lux) were diluted to ˜2×10^6 cells/ml. Bacteria, diluted baby rabbit serum providing complement (Cedarlane, pre-absorbed with Kp43816ΔcpsB, 1:10), dimethylformamide (DMF) differentiated HL-60 cells, and sera were mixed in 384-well plates and incubated at 37° C. for two hours with shaking (250 rpm). The relative light units (RLUs) were then measured using an Envision Multilabel plate reader (Perkin Elmer). The percentage of killing was determined by comparing RLU derived from assays with no antibodies to RLU obtained from human sera.
as §1, with “OPK” for “PBMC donors were ranked based on their binding titers as well as their SBA and OPK activity. OPK”, “al., J. Infect.” for “al. Target-Agnostic Identification of Functional Monoclonal Antibodies Against Klebsiella pneumoniae Multimeric MrkA Fimbrial Subunit J Infect”, “213:1800-8 (2016)).” for “2016 Jun. 1; 213(11):1800-8).”, “antibodies” for “sera”, “anti-K. pneumoniae mAbs and a negative control mAb.” for “human sera.”

For the next experiment, the system named is purified O1 LPS. In words: ELISA binding to purified O1 LPS. Conditions: FIG. 1A. Further details: species or system Klebsiella pneumoniae. How it is done: Binding to purified O1 LPS was assayed by standard ELISA method. Briefly, ELISA plates (Nunc MaxiSorp) were coated with purified O1 LPS in PBS, pH 7.2, overnight at 4 C, followed by blocking the plates with PBS supplemented with 1% BSA (PBS-B). The coated plates were incubated with series dilutions of monoclonal antibodies for 1 h at room temperature. The plates were then washed with PBS containing 0.1% Tween-20 (PBS-T) before HRP-conjugated anti-human secondary antibodies were added for 1 hour followed by TMB TMB (3,3′,5,5′-Tetrametheylbenzidine) substrates. The absorbance of 450 nm was measured by microplate reader (Molecular Devices) and the data were plotted with Prism software.

Experiment [3] has as its system Klebsiella pneumoniae of the LPS-O1 serotype. In words: primary screening, binding to whole bacteria. The source says: KPA27 and KPE33 were isolated from the peripheral blood of two different immune donors: #487 and #262, respectively. […] KPA27 and KPE33 were isolated from immune donors as IgG2 antibodies.
KPB202 and KPJ4 were isolated from tonsillar B cells of two different donors: T6 (KPB202) and T8 (KPJ4). […] KPB202 and KPJ4 were isolated from donors as IgG1 and IgG2 antibodies, respectively.

The target of a further experiment is O1 LPS. As to the kind of experiment: Octet binding affinity to O1 LPS. Conditions: average, from on-rate and off-rate, read-out: affinity constant (KD) to O1 LPS. Further details: species or system Klebsiella pneumoniae. The source says:
In order to reduce potential sequence liabilities for antibody development including potential immunogenicity due to anti-drug antibodies, an unpaired Cysteine in the light chain CDR3 of KPE33 was exchanged with Threonine (T), and somatic mutations in the frameworks 1, 2, and 4 of KPE33 were replaced with germ line residues (as summarized in FIG. 5). CDRs were maintained as wildtype, except for the C107T substitution described above. The optimized KPE33 was named KPE33v2016. […] This platform provides a powerful tool to measure the rate of biomolecular complex formation and complex stability in a more biologically meaningful setting. Briefly, Protein A coated sensors were coated with 2 μg/mL O1 LPS for 10 minutes before being dipped into solution containing 0.2 μg/mL anti-O1 LPS mAbs in Kinetics buffer (ForteBio, dilute 10× to 1× with PBS). Changes in the number of molecules bound to the biosensor caused a shift in the interference pattern that was recorded in real time. […] The affinity constant (KD) of KPE33 and KPE33v2016 to O1 LPS was calculated based on the on-rate and off-rate from Octet sensorgram.
KPE33v2016 was further optimized, thereby creating two new variants—KPE33 H32+L2016(1EQ) and KPE33 H33+L2016(1EQ). Both of these variants contain a Methionine to Isoleucine mutation adjacent to CDRH1, a Tryptophan to Tyrosine mutation in CDRH2, an Aspartate to Glutamate mutation adjacent to CDRH2, Asparagine to Glutamine and Methionine to Leucine mutations in FRH3 and an Aspartate to Asparagine mutation in CDRH3. In addition, KPE33 H32+L2016(1EQ) had four FRH3 residues changed to the germ-line residues, whereas KPE33 H33+L2016(1EQ) only has three of the same FRH3 residues changed to the germ-line. Both of these variants contain the same light chain as KPE33v2016, but with a single Glutamate to Glutamine mutation in residue 1.

B1: KPB202: human anti-O1 antigen antibody from tonsillar B cells, VH SEQ ID NO:39, VL SEQ ID NO:40, IgG1 (antibody, V domains shown)
VH: EVQLVESGGGLVQPGGSLSLSCAASGFTFSNFWVGWGRQAPGKGLEWVANINPDGSEKYYVDSVKGRVTISRDNAKNSLSLQMNSLRVEDAAVYYCARLGPFHPDCWGQGTLVTVSS
VL: DVVMTQSPLSLPVTLGQPASISCRSSQSLVHSDGNTYLNWFQQRPGQSPRRLIYEVSNRDSGVPDRFSGSGSGTDFTLKISRVEAEDIGVYYCMQGTHWPWTFGQGTKVEIK
modifications: KPB202 VH Amino Acid Sequence; KPB202 VL Amino Acid Sequence
For B1, on LPS (O1), the “LPS Neut (O1) IC50” value was 0.038 mg/L and the LPS neutralization result was “neutralized LPS”. Besides, in experiment [1], the “SBA Kp4211lux IC50” value came to 0.0006 mg/L, the “complement-dependent killing in SBA” value is given as “kill K. pneumoniae via complement-dependent killing” and the “complement-dependent killing (SBA) in primary screening” value (“complement-dependent killing (SBA)” for short) is “mediate complement-dependent killing”. Moreover, in experiment [2], the “D Capsule OPK IC50” value worked out at 0.0009 mg/L and the “induction of OPK killing” value is given as “induced OPK killing”. The “binding to purified O1 LPS” value in the experiment with purified O1 LPS is recorded as “bound to purified O1 LPS”. Also, the “binding to bacteria in primary screening” value in experiment [3] was “bind to Klebsiella pneumoniae of the LPS-O1 serotype”.

B2: KPJ4: human anti-O1 antigen antibody from tonsillar B cells, VH SEQ ID NO:30, VL SEQ ID NO:31, IgG2 (antibody, V domains shown)
VH: QVQLQQSGPGLVRPSQTLSLTCAISGDSVSSNTAAWNWIRQSPSRGLEWLGRTYYRSEWYNDYAVSVKSRITINPDTSKNQFSLQLNSVTPEDTAVYYCARISWNDLPAWGQGTLVTVSS
VL: DIVMTQSPDSLAVSLGERATINCKSSQSILYSSHNKNYLAWYQQKPGQPPKVLIYWASTRESGVPDRFSGSGSGTDFTLTISNLQAEDVAVYYCQQYCNIPYTFGQGTKLEIK
modifications: IgG2 constant regions; KBJ4 VH Amino Acid Sequence; KPJ4 VL Amino Acid Sequence
Turning to B2, the LPS neutralization result with LPS (O1) is “did not”. In experiment [1], the “SBA Kp4211lux IC50” value is 0.11 mg/L, the “complement-dependent killing in SBA” value was “kill K. pneumoniae via complement-dependent killing” and the “complement-dependent killing (SBA)” value is recorded as “mediate complement-dependent killing”. Moreover, in experiment [2], the “D Capsule OPK IC50” value is 0.011 mg/L and the “induction of OPK killing” value is given as “induced OPK killing”. In addition, the “binding to purified O1 LPS” value with purified O1 LPS was “bound to purified O1 LPS”. Also, the “binding to bacteria in primary screening” value in experiment [3] was “bind to Klebsiella pneumoniae of the LPS-O1 serotype”.

B3: KPA27: human anti-O1 antigen antibody, VH SEQ ID NO:21, VL SEQ ID NO:22, isolated as IgG2 (antibody, V domains shown)
VH: QVQLVQSGAEVKKPGASVKVSCKASENTFNDFYMHWVRQAPGQGLEWMGWIHPDGVVTNYAQKFQGRVTMTRDTSINTVYMELNGLISDDTAVYYCMRDGPGSEGSWFDYWGQGTLVTVSS
VL: DIQMTQSPSTLSASVGDRVTITCRASQPVSNRLAWYQQKPGRAPTLLIYKASTLQSGVPLRFSGSGSGTEFTLTISSLQSDDFATYYCQQSQTFGQGTKVEIK
modifications: KPA27 VH Amino Acid Sequence; KPA27 VL Amino Acid Sequence
Turning to B3, in the experiment on LPS (O1), the LPS neutralization entry is “did not”. Besides, in experiment [1], the “SBA Kp4211lux IC50” value turned out to be 1.625 mg/L, the “complement-dependent killing in SBA” value was “kill K. pneumoniae via complement-dependent killing” and the “complement-dependent killing (SBA)” value is on record as “mediate complement-dependent killing”. Further, in experiment [2], the “D Capsule OPK IC50” value stood at 0.67 mg/L and the “induction of OPK killing” value is on record as “induced OPK killing”. Moreover, the “binding to purified O1 LPS” value in the experiment with purified O1 LPS is reported as “bound to purified O1 LPS”. In addition, the “binding to bacteria in primary screening” value in experiment [3] is “bind to Klebsiella pneumoniae of the LPS-O1 serotype”.

B4: KPE33V2016: sequence optimized KPE33, VH SEQ ID NO:12, VL SEQ ID NO:13 (antibody, V domains shown)
VH: EVQLVESGGGLVQPGRSLRLSCAASGFIFDDYAMHWVRQAPGKGLEWVSGIAWKSGATNYADSVKGRFAISRDNSKKSMYLQMNSLGTEDTALYYCTRRRASGDDTFYYFDYWGQGTLVTVSS
VL: EIVLTQSPATLSLSPGERATLSCRASQNVNTNLAWYQQKPGQAPRLLIYDASNRATGIPARFSGSGSGTDFTLTISSLEPEDFAVYYCQQTTNWRYTFGQGTKLEIK
modifications: KPE33V2016 VH Amino Acid Sequence; KPE33V2016 VL Amino Acid Sequence
With B4, on O1 LPS, the Kd turned out to be 4.13 nM.
